# Assay results taken from patent publication US20190359693A1.
# Legend:
# Experiment in all cases: cell-based or functional assay
# [1] = biological target: hemagglutinin (HA) of influenza A/Aichi/2/68 (H3N2) (influenza A virus) (UniProt P03437)
# [2] = biological target: hemagglutinin (HA) of influenza A/AnnArbor/23/57 (H2N2) (influenza A virus)
# [3] = biological target: hemagglutinin (HA) of influenza A/Brisbane/10/07 (H3N2) (influenza A virus)
# [4] = biological target: hemagglutinin (HA) of influenza A/Brisbane/59/07 (H1N1) (influenza A virus)
# [5] = biological target: hemagglutinin (HA) of influenza A/California/07/09 (H1N1) (influenza A virus)
# [6] = biological target: hemagglutinin (HA) of influenza A/Christchurch/16/10 (H1N1) (influenza A virus)
# [7] = biological target: hemagglutinin (HA) of influenza A/Common Teal/MPF139/07 (H7N7) (influenza A virus)
# [8] = biological target: hemagglutinin (HA) of influenza A/Common Teal/MPH11/08 (H10N3) (influenza A virus)
# [9] = biological target: hemagglutinin (HA) of influenza A/Env/HK/MPU3156/05 (H2N2) (influenza A virus)
# [10] = biological target: hemagglutinin (HA) of influenza A/Env/MPJ1258/09 (H8N2) (influenza A virus)
# [11] = biological target: hemagglutinin (HA) of influenza A/Env/MPK659/09 (H12N5) (influenza A virus)
# [12] = biological target: hemagglutinin (HA) of influenza A/Eurasian Wigeon/MPD411/07 (H6N8) (influenza A virus)
# [13] = biological target: hemagglutinin (HA) of influenza A/Eurasian Wigeon/MPG1884/09 (H6N1) (influenza A virus)
# [14] = biological target: hemagglutinin (HA) of influenza A/Eurasian Wigeon/MPH571/08 (H8N4) (influenza A virus)
# [15] = biological target: hemagglutinin (HA) of influenza A/Great Cormorant/MP2934/04 (H9N2) (influenza A virus)
# [16] = biological target: hemagglutinin (HA) of influenza A/Great Cormorant/MPB1683/06 (H4N6) (influenza A virus)
# [17] = biological target: hemagglutinin (HA) of influenza A/Guiyang/1/57 (H2N2) (influenza A virus)
# [18] = biological target: hemagglutinin (HA) of influenza A/HK/1174/99 (H3N2) (influenza A virus)
# [19] = biological target: hemagglutinin (HA) of influenza A/HK/466419/09 (H9N2) (influenza A virus)
# [20] = biological target: hemagglutinin (HA) of influenza A/HK/54/98 (H1N1) (influenza A virus)
# [21] = biological target: hemagglutinin (HA) of influenza A/Hiroshima/52/05 (H3N2) (influenza A virus)
# [22] = biological target: hemagglutinin (HA) of influenza A/Indonesia/5/05 (H5N1) (influenza A virus)
# [23] = biological target: hemagglutinin (HA) of influenza A/Jiangxi/346/2013 (H10N8) (influenza A virus)
# [24] = biological target: hemagglutinin (HA) of influenza A/Johannesburg/33/94 (H3N2) (influenza A virus)
# [25] = biological target: hemagglutinin (HA) of influenza A/Mallard/Astrakhan/263/1982 (H14N5) (influenza A virus)
# [26] = biological target: hemagglutinin (HA) of influenza A/Mississippi/03/01 274H (H1N1) (influenza A virus)
# [27] = biological target: hemagglutinin (HA) of influenza A/NIBRG/60 (A/mallard/Netherlands/12/00) (H7N3) (influenza A virus)
# [28] = biological target: hemagglutinin (HA) of influenza A/Netherlands/219/2003 (H7N7) (influenza A virus)
# [29] = biological target: hemagglutinin (HA) of influenza A/Northern Shoveler/MPE2531/08 (H10N9) (influenza A virus)
# [30] = biological target: hemagglutinin (HA) of influenza A/Northern Shoveler/MPF518/08 (H7N7) (influenza A virus)
# [31] = biological target: hemagglutinin (HA) of influenza A/PR8 H7N7-NY (H7N7) (influenza A virus)
# [32] = biological target: hemagglutinin (HA) of influenza A/Panama/2007/99 (H3N2) (influenza A virus)
# [33] = biological target: hemagglutinin (HA) of influenza A/Shanghai/2/13 (H7N9) (influenza A virus)
# [34] = biological target: hemagglutinin (HA) of influenza A/Solomon Islands/3/2006 (IVR 145) (H1N1) (influenza A virus)
# [35] = biological target: hemagglutinin (HA) of influenza A/Taiwan/2/2013 (H6N1) (influenza A virus)
# [36] = biological target: hemagglutinin (HA) of influenza A/Victoria/210/09 (H3N2) (influenza A virus)
# [37] = biological target: hemagglutinin (HA) of influenza A/WF/HK/MPA892/06 (H4) (influenza A virus)
# [38] = biological target: hemagglutinin (HA) of influenza A/WSN/33 (H1N1) (influenza A virus) (UniProt P03454)
# [39] = biological target: hemagglutinin (HA) of influenza A/Wisconsin/67/05 (H3N2) (influenza A virus)
# [40] = biological target: hemagglutinin (HA) of influenza B/Brisbane/60/08 (Victoria) (influenza B virus)
# [41] = biological target: hemagglutinin (HA) of influenza B/Florida/04/06 (Yamagata) (influenza B virus)
# [42] = biological target: hemagglutinin (HA) of influenza B/Harbin/7/94 (Yamagata) (influenza B virus)
# [43] = biological target: hemagglutinin (HA) of influenza B/Massachusetts/02/12 (Yamagata) (influenza B virus)
substance,measurement,setting,value
MD3606 (Fc fusion),Average neutralization titers,[1],32.2 nM
same,Average neutralization titers,[2],13.2 nM
same,Average neutralization titers,[3],4.1 nM
same,Average neutralization titers,[4],5.3 nM
same,Average neutralization titers,[5],1.8 nM
same,Average neutralization titers,[6],1 nM
same,Average neutralization titers,[7],26.3 nM
same,Average neutralization titers,[8],11.3 nM
same,Average neutralization titers,[9],9.3 nM
same,Average neutralization titers,[10],3.9 nM
same,Average neutralization titers,[11],> 1000 nM
same,Average neutralization titers,[12],9.7 nM
same,Average neutralization titers,[13],11.6 nM
same,Average neutralization titers,[14],3.7 nM
same,Average neutralization titers,[15],9.7 nM
same,Average neutralization titers,[16],3.1 nM
same,Average neutralization titers,[17],26.7 nM
same,Average neutralization titers,[18],23 nM
same,Average neutralization titers,[19],5.3 nM
same,Average neutralization titers,[20],5 nM
same,Average neutralization titers,[21],6.5 nM
same,Average neutralization titers,[22],11.5 nM
same,Average neutralization titers,[23],18.3 nM
same,Average neutralization titers,[24],8.1 nM
same,Average neutralization titers,[25],12.9 nM
same,Average neutralization titers,[26],4.7 nM
same,Average neutralization titers,[27],12.9 nM
same,Average neutralization titers,[28],20.4 nM
same,Average neutralization titers,[29],20.7 nM
same,Average neutralization titers,[30],18.4 nM
same,Average neutralization titers,[31],8.1 nM
same,Average neutralization titers,[32],40.5 nM
same,Average neutralization titers,[33],22.8 nM
same,Average neutralization titers,[34],1.6 nM
same,Average neutralization titers,[35],14.5 nM
same,Average neutralization titers,[36],6.5 nM
same,Average neutralization titers,[37],3 nM
same,Average neutralization titers,[38],2 nM
same,"ADCC induction (EC50 grade, FcγRIIIa reporter bioassay)",[39],< 0.1 µg/mL
same,Average neutralization titers,[39],6.5 nM
same,"ADCC induction (EC50 grade, FcγRIIIa reporter bioassay)",[40],< 0.1 µg/mL
same,Average neutralization titers,[40],1 nM
same,"ADCC induction (EC50 grade, FcγRIIIa reporter bioassay)",[41],< 0.1 µg/mL
same,Average neutralization titers,[41],1 nM
same,Average neutralization titers,[42],1 nM
same,Average neutralization titers,[43],1 nM
